In assay [1] the target is T1, Full-length Cyno 4-1BB (cynomolgus monkey, UniProt Q07011 24-255 (human entry)).
T1 construct: on Jurkat or CHO cells; also called FOB006; cynomolgus 4-1BB
T1 chain: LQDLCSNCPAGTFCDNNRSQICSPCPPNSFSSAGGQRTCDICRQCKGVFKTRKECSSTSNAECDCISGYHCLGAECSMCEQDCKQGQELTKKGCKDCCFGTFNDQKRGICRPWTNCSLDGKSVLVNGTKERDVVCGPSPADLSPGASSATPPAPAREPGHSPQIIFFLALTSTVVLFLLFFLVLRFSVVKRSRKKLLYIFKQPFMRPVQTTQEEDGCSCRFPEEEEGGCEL
Description: flow cytometry on Jurkat cells transfected with cynomolgus 4-1BB, goat anti-human Fc secondary antibody, MFI (Mean). On the procedure: (§1) Serial dilutions of ADAPTIR™ constructs were incubated with transfected target cells and subsequently labelled with a fluorescently-conjugated goat-a-human Fc secondary antibody. […] (See Example 25.)

Assay [2] deals with T2, Full-length Cyno OX40 (cynomolgus monkey, UniProt P43489 29-277 (human entry)).
T2 construct: on CHO-K1SV cells; also called OXF004; cynomolgus OX40
T2 chain: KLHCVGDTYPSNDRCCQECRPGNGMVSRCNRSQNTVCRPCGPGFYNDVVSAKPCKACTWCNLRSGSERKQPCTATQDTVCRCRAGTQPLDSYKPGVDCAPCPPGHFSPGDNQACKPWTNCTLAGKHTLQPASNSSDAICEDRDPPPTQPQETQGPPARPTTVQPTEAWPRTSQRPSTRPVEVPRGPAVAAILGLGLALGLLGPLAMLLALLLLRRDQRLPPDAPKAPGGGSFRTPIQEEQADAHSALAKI
Description: flow cytometry on CHOK1SV cells transfected with cynomolgus OX40, goat anti-human Fc secondary antibody, MFI (Mean). As for the experimental part: as §1
On the technique in general: In flow cytometry, cells or beads pass a laser one at a time.

The target of assay [3] is T3, Full-length Human OX40 (human, UniProt P43489 29-277).
T3 sequence: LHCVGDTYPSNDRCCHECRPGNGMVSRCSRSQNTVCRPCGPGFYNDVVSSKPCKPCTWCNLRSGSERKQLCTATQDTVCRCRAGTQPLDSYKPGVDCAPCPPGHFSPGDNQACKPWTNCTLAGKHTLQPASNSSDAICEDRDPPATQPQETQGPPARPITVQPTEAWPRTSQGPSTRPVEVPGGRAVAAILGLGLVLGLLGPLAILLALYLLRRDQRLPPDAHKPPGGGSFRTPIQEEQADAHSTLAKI
Description: cell-based or functional assay.

Assay [4] deals with Full-length Human 4-1BB (human, UniProt Q07011 24-255). In words: cell-based or functional assay.
Assay [5] concerns the target T4, Human OX40 ECD-AFH (human).
T4 construct: ECD'; entry includes the C-terminal tags; also called OXF003; Human OX40 ECD-avi-flag-his
T4 chain: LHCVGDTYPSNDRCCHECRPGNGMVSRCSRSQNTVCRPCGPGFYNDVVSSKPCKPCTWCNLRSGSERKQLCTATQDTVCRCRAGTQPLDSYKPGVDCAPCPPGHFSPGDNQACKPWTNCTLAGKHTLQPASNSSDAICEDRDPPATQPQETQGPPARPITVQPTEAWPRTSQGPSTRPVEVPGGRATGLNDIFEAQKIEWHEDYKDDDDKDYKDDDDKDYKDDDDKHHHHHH
In words: SPR (Biacore 8K), construct captured, monovalent ECD. As for the experimental part:
(§2) Mouse anti-human IgG (GE, BR-1008-39) at 25 μg/ml in 10 mM sodium acetate pH 5.0 was immobilized at a density of ˜10,000 response units (RU) onto each flow cell of a CM5 research-grade sensor chip (GE) by standard amine coupling chemistry. Each binding protein at approximately 100 nM in HBS-EP+ with 0.2% BSA buffer was captured in a flow cell with the immobilized anti-human IgG at a flow rate of 10 μL/min for 20 seconds, leaving one flow cell surface unmodified as the reference. Using a single-cycle kinetics mode, five different concentrations of ECD were sequentially injected through each flow cell at 30 μL/min for 300 seconds followed by a 600 second dissociation period. Regeneration was achieved by injection of 3 M MgCl₂ at a flow rate of 30 μL/min for 30 seconds followed by HBS-EP+ with 0.2% BSA buffer stabilization for 1 min.
(§3) Sensorgrams obtained from kinetic SPR measurements were analyzed by the double subtraction method. The signal from the reference flow cell was subtracted from the analyte binding response obtained from flow cells with immobilized or captured ligands. Buffer reference responses were then averaged from multiple injections. The averaged buffer reference responses were then subtracted from analyte binding responses, and the final double-referenced data were analyzed with Biacore T200 Evaluation software (2.0, GE), globally fitting data to derive kinetic parameters. All sensorgrams were fitted using a simple one-to-one binding model.
(§4) Using the BIACORE 8K SPR system, the affinity of these constructs for human and cyno 4-1BB, and human and cyno OX40 ECD, were determined using the methods described above. Monovalent binding affinity was determined by capturing the ADAPTIR™ bispecific construct on the chip and injecting monovalent ECD of the target at multiple concentrations.
A general note: In SPR one partner is held on a chip, and binding of the other changes the refractive index at the surface.

The target of assay [6] is T5, Cyno OX40-AFH (cynomolgus monkey).
T5 construct: entry includes the tags; also called OXF005; cyno OX40 ECD
T5 chain: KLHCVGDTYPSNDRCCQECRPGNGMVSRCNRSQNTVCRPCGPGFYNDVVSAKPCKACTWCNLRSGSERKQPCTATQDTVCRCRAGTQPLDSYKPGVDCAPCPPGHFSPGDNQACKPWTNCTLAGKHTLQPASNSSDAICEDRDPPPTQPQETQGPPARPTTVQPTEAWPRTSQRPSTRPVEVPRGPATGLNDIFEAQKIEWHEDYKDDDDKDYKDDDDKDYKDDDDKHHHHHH
The description is as above. As for the experimental part:
as §2, §3, §4

For assay [7], the target named is T6, Human 4-1BB ECD-AFH (human).
T6 construct: entry includes the tags; also called FOB003; HUMAN CD137 ECD-AVI-FLAG-HIS
Described as above. As for the experimental part:
as §2, §3, §4

Assay [8] has as its target T7, Cyno 4-1BB ECD-AFH (cynomolgus monkey).
T7 construct: entry includes the tags; also called FOB004; Cyno CD137 ECD-avi-flag-his
T7 chain: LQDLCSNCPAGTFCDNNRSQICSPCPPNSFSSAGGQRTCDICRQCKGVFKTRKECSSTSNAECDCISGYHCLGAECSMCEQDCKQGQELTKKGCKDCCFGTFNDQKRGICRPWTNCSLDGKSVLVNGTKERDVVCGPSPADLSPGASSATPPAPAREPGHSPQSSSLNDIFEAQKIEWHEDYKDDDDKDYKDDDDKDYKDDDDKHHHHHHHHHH
The description is as above. On the procedure: as §2, §3, §4

B1: FXX01117 (bispecific antibody)
chain: EVQLVQSGAEVKKPGASVKVSCKASGYTFTSYWMNWVRQAPGQGLEWMGNIYPSGGSTNYAQKFQGRVTMTVDTSTSTVYMELSSLRSEDTAVYYCASFSDGYYAYAMDYWGQGTLVTVSSGGGGSGGGGSGGGGSGGGGSEIVMTQSPATLSLSPGERATLSCRASQSVSSYLNWYQQKPGQAPRLLIYYASRRHTGIPARFSGSGSGTDFTLTISSLQPEDFAVYYCQQGYNLPYTFGQGTKVEIKEPKSSDKTHTCPPCPAPPAAAPSVFLFPPKPKDTLMISRTPEVTCVVVDVSHEDPEVKFNWYVDGVEVHNAKTKPREEQYNSTYRVVSVLTVLHQDWLNGKEYKCAVSNKALPAPIEKTISKAKGQPREPQVYTLPPSRDELTKNQVSLTCLVKGFYPSDIAVEWESNGQPENNYKTTPPVLDSDGSFFLYSKLTVDKSRWQQGNVFSCSVMHEALHNHYTQKSLSLSPGGGGSPSSYVLTQPPSVSVAPGQTARITCGGNNIGSKSVNWFQQKPGQAPVLVVYDDSGRPSGIPKRFSGSTSGNTATLTISRVEAGDEADYYCQVWDSSSDHVVFGGGTKLTVLGGGGSGGGGSGGGGSGGGGSQVQLVESGGGVVQPGRSLRLSCAASGFTLSYYGMHWVRQAPGKGLEWVAAISHDGSDKYYADSVKGRFTISRDNSKNRLYLQMNSLRAEDTAVYYCSNDQFDPWGQGTLVTVSSR
notes: ADAPTIR anti-4-1BB x anti-OX40, pI variant
For B1, the EC50 (read off the curve) (in general, the midpoint of the concentration-response curve) in assay [1] is around 0.3 nM. In assay [2], the “EC50 (read off the curve)” value fell in the range of 1 to 2 nM. For the same molecule, in assay [3], the “OX40 Reporter Assay EC50” value was 0.018 nM and the “OX40 Reporter Assay Max induction” value amounted to 6.22e+06. Further, in assay [4], the “4-1BB Reporter Assay EC50” value turned out to be 0.02 nM and the “4-1BB Reporter Assay Max induction” value was found to be 1.41e+06. For the same molecule, in assay [5], the Kd – broadly, the equilibrium constant for the complex coming apart – is below 1 nM; the off-rate (koff) (usually a measure of how fast the partners let go of each other) turned out to be 0.0003 s⁻¹; the kon (commonly the second-order rate constant of association) is 970000 M⁻¹ s⁻¹. Also, in assay [6], the Kd is below 1 nM, the koff was 0.0002 s⁻¹ and the kon is 1e+06 M⁻¹ s⁻¹. In assay [7], this molecule had a Kd of 17 nM, a koff of 0.0042 s⁻¹ and an association rate constant (kon) of 250000 M⁻¹ s⁻¹. In assay [8], this molecule gave a dissociation constant (Kd) of 76 nM, a koff of 0.0072 s⁻¹ and a kon of 96000 M⁻¹ s⁻¹.

B2: FXX01118 (bispecific antibody)
chain: EVQLVQSGAEVKKPGASVKVSCKASGYTFTSYWMNWVRQAPGQGLEWMGNIYPSGGSTNYAQKFQGRVTMTVDTSTSTVYMELSSLRSEDTAVYYCASFSDGYYAYAMDYWGQGTLVTVSSGGGGSGGGGSGGGGSGGGGSEIVMTQSPATLSLSPGERATLSCRASQSVSSYLNWYQQKPGQAPRLLIYYASRRHTGIPARFSGSGSGTDFTLTISSLQPEDFAVYYCQQGYNLPYTFGQGTKVEIKEPKSSDKTHTCPPCPAPPAAAPSVFLFPPKPKDTLMISRTPEVTCVVVDVSHEDPEVKFNWYVDGVEVHNAKTKPREEQYNSTYRVVSVLTVLHQDWLNGKEYKCAVSNKALPAPIEKTISKAKGQPREPQVYTLPPSRDELTKNQVSLTCLVKGFYPSDIAVEWESNGQPENNYKTTPPVLDSDGSFFLYSKLTVDKSRWQQGNVFSCSVMHEALHNHYTQKSLSLSPGGGGSPSSYVLTQPPSVSVAPGKTARITCGGNNIGSKSVNWFQQKPGQAPVLVVYDDSGRPSGIPARFSGSTSGNTATLTISRVEAGDEADYYCQVWDSSSDHVVFGGGTKLTVLGGGGSGGGGSGGGGSGGGGSQVQLVESGGGVVQPGRSLRLSCAASGFTLSYYGMHWVRQAPGKGLEWVAAISHDGSDKYYADSVKGRFTISRDNSKNRLYLQMNSLRAEDTAVYYCSNDQFDPWGQGTLVTVSSR
notes: as for B1
As for B2, the “EC50 (read off the curve)” value in assay [1] is around 0.3 nM; in assay [2] it was 1 to 2 nM. Moreover, the “OX40 Reporter Assay EC50” value in assay [3] stood at 0.016 nM. Further, the “OX40 Reporter Assay Max induction” value in assay [3] amounted to 6.28e+06. Moreover, the “4-1BB Reporter Assay EC50” value in assay [4] turned out to be 0.018 nM. In addition, the “4-1BB Reporter Assay Max induction” value in assay [4] stood at 1.38e+06. The Kd in assay [5] is below 1 nM; in assay [6] it was below 1 nM; in assay [7], 17 nM; in assay [8] it was 80 nM. In addition, the koff in assay [5] is 0.00031 s⁻¹; in assay [6], 0.00024 s⁻¹; in assay [7], 0.0046 s⁻¹; in assay [8] it was 0.0077 s⁻¹. The kon in assay [5] came out at 840000 M⁻¹ s⁻¹; in assay [6] it was 1.1e+06 M⁻¹ s⁻¹; in assay [7], 270000 M⁻¹ s⁻¹; in assay [8], 96000 M⁻¹ s⁻¹.

B3: FXX01120 (bispecific antibody)
chain: EVQLVQSGAEVKKPGASVKVSCKASGYTFTSYWMNWVRQAPGQGLEWMGNIYPSGGSTNYAQKFQGRVTMTVDTSTSTVYMELSSLRSEDTAVYYCASFSDGYYAYAMDYWGQGTLVTVSSGGGGSGGGGSGGGGSGGGGSEIVMTQSPATLSLSPGERATLSCRASQSVSSYLNWYQQKPGQAPRLLIYYASRRHTGIPARFSGSGSGTDFTLTISSLQPEDFAVYYCQQGYNLPYTFGQGTKVEIKEPKSSDKTHTCPPCPAPPAAAPSVFLFPPKPKDTLMISRTPEVTCVVVDVSHEDPEVKFNWYVDGVEVHNAKTKPREEQYNSTYRVVSVLTVLHQDWLNGKEYKCAVSNKALPAPIEKTISKAKGQPREPQVYTLPPSRDELTKNQVSLTCLVKGFYPSDIAVEWESNGQPENNYKTTPPVLDSDGSFFLYSKLTVDKSRWQQGNVFSCSVMHEALHNHYTQKSLSLSPGGGGSPSSYVLTQPPSVSVAPGKTARITCGGNNIGSKSVNWFQQKPGQAPVLVVYDDSGRPSGVPSRFSGSTSGNTATLTISRVEAGDEADYYCQVWDSSSDHVVFGGGTKLTVLGGGGSGGGGSGGGGSGGGGSQVQLVESGGGVVQPGRSLRLSCAASGFTLSYYGMHWVRQAPGKGLEWVAAISHDGSDKYYADSVKGRFTISRDNSKNRLYLQMNSLRAEDTAVYYCSNDQFDPWGQGTLVTVSSR
notes: as for B1
On to B3, for which the “EC50 (read off the curve)” value is around 0.3 nM in assay [1] and 1 to 2 nM in assay [2]. Also, the “OX40 Reporter Assay EC50” value in assay [3] was found to be 0.012 nM. Further, the “OX40 Reporter Assay Max induction” value in assay [3] was 6.12e+06. The “4-1BB Reporter Assay EC50” value in assay [4] amounted to 0.015 nM. The “4-1BB Reporter Assay Max induction” value in assay [4] worked out at 1.38e+06. Besides, the Kd in assay [5] is 0.4 nM; in assay [6], 0.2 nM; in assay [7] it was 18 nM; in assay [8], 77 nM. Besides, the koff in assay [5] worked out at 0.00039 s⁻¹; in assay [6] it was 0.00023 s⁻¹; in assay [7] it was 0.0046 s⁻¹; in assay [8] it was 0.0075 s⁻¹. The kon turned out to be 1e+06 M⁻¹ s⁻¹ in assay [5], 950000 M⁻¹ s⁻¹ in assay [6], 260000 M⁻¹ s⁻¹ in assay [7] and 97000 M⁻¹ s⁻¹ in assay [8].

(Values after patent US20220242962A1 (APTEVO RESEARCH AND DEVELOPMENT, published 2022).)
